Reference: patent publication US20220143148A1, “COMPOSITIONS AND METHODS FOR MODULATING CGRP SIGNALING TO REGULATE INTESTINAL INNATE LYMPHOID CELLS” (The Broad Institute, Inc., priority 2019, published 2022)

Tested on: small intestinal immune cells
Assay: Droplet-based scRNA-seq of small intestinal immune cells (LP and PP), OVA vs PBS, clustering and differential expression
Format: in vivo, mouse
Details: cluster ID 4, PP
Excerpt: To comprehensively characterize small intestinal immune cells, Applicants generated scRNA-Seq profiles for 58,067 immune cells collected from lamina propria (LP) and Peyer's patch (PP) regions at steady state and after induction of a type 2 inflammatory reaction to ovalbumin (OVA) (Brandt et al., 2003) (FIGS. 1A and 8A). To ensure sufficient representation of rare cells, Applicants combined a normalization strategy—removing by flow sorting either a portion of IgD+ naïve B cells, which are the most abundant cell type in PPs, or all CD19+ and CD3+ T cells (FIG. 8B, Methods)—with profiling of a sufficiently large number of cells number (P>0.99 to recover at least 15 cells from each cluster, Methods) by massively parallel scRNA-seq (Haber et al., 2017) (Methods). Applicants obtained 36,797 and 21,270 high quality cells passing initial filtering (Methods) from PP and LP regions, respectively.
Overall, Applicants annotated 27 cell subsets across the two compartments, spanning T cells, B cells, ILCs, dendritic cells (DCs), myeloid cells and stromal cells, in frequencies ranging from 0.07% to 14%. Briefly, Applicants first partitioned the cells from the PP regions by unsupervised clustering (Methods) into 46 clusters, retained the 97% of cells that were robustly assigned cell identities in each cluster (Methods), assigned the cells from the LP regions to the 46 clusters using a classifier (Methods), and visualized the data with scvis (Ding et al., 2018), a deep generative model-based method (FIGS. 1B and 8C, Methods). Next, Applicants identified genes that were differentially expressed between the cells in each cluster and the remaining cells (Table 1, Methods), as well as between pairs of clusters (Table 2), to elucidate identities of similar cell types/states. Applicants excluded from downstream analysis clusters mostly consisting of contaminants from epithelium, likely doublets, or cells with a small number of Unique Molecular Identifiers (UMIs) (FIGS. 1C and 8D), or lacking distinct markers (Methods). Altogether, Applicants retained 27 clusters spanning 85% of the cells and each associated with distinct marker genes (FIG. 8E, Methods).
To induce allergic reaction to OVA, 6 to 7 weeks old mice were sensitized twice, two weeks apart, with 50 μg of OVA plus 1 mg of aluminum potassium sulfate adjuvant via intraperitoneal injection. Two weeks later, mice were orally administered with 50 mg of OVA on every other day for a total of five times. 1 μg of α-CGRP peptide was administered simultaneously when indicated. Mice were deprived of food for 3-4 hours in cages with wood chip bedding for limiting antigen degradation in the stomach before each intragastric challenge.
Isolation of cells from Peyer's patches (PPs). Peyer's patches (PPs) were carefully dissected from the small intestine under a stereo microscope using a fine scissor, pierced once with a fine forcep. Tissues were digested in freshly made digestion buffer (RPMI-1640 containing 100 μg/ml Liberase™ and 50 μg/ml DNase I at 37° C. on a roto-mixer. After 15 min, tissues were very gently mixed using a 1 ml pipette. The supernatant was collected and added to ice-cold MACS buffer (pH 7.4; PBS plus 2% FCS and 2 mM EDTA). Pre-warmed (37° C.) fresh digestion buffer was added to the remaining tissues. After rotation at 37° C. for 15 min, the mixture was vigorously mixed using a 1 ml pipette for 1 min. Supernatants from the two steps were combined and passed through 70 μm filters and stained for FACS (below).
Isolation of cells from the lamina propria (LP). The small intestines were opened longitudinally and washed in ice-cold PBS. For scRNA-seq, roughly 0.5 cm of fragments from each of the distal, middle and proximal regions without visible PPs were collected. Epithelial cells were dissociated by tissue rotation in pre-warmed (37° C.) PBS containing 10 mM EDTA at 37° C. for 15 min, followed by additional incubation on ice for 15 min. Tissues were then shaken vigorously. […]

B1: OVA (protein, UniProt P01012 2-386, looked up)
Ovalbumin: GSIGAASMEFCFDVFKELKVHHANENIFYCPIAIMSALAMVYLGAKDSTRTQINKVVRFDKLPGFGDSIEAQCGTSVNVHSSLRDILNQITKPNDVYSFSLASRLYAEERYPILPEYLQCVKELYRGGLEPINFQTAADQARELINSWVESQTNGIIRNVLQPSSVDSQTAMVLVNAIVFKGLWEKAFKDEDTQAMPFRVTEQESKPVQMMYQIGLFRVASMASEKMKILELPFASGTMSMLVLLPDEVSGLEQLESIINFEKLTEWTSSNVMEERKIKVYLPRMKMEEKYNLTSVLMAMGITDVFSSSANLSGISSAESLKISQAVHAAHAEINEAGREVVGSAEAGVDAASVSEEFRADHPFLFCIKHIATNAVLFFGRCVSP
H2-T23: percentage of expressing cells in OVA-treated group: 0.264
Herpud1: percentage of expressing cells in OVA-treated group: 0.33
Icos: percentage of expressing cells in OVA-treated group: 0.236
Il2ra: percentage of expressing cells in OVA-treated group: 0.457
Il18r1: percentage of expressing cells in OVA-treated group: 0.605
Irf2: percentage of expressing cells in OVA-treated group: 0.306
Irs2: percentage of expressing cells in OVA-treated group: 0.149
Itgav: percentage of expressing cells in OVA-treated group: 0.175
Klf13: percentage of expressing cells in OVA-treated group: 0.417
Klrk1: percentage of expressing cells in OVA-treated group: 0.133
Leng9: percentage of expressing cells in OVA-treated group: 0.128
Map3k14: percentage of expressing cells in OVA-treated group: 0.133
Mast4: percentage of expressing cells in OVA-treated group: 0.467
Mbnl2: percentage of expressing cells in OVA-treated group: 0.162
Minos1: percentage of expressing cells in OVA-treated group: 0.768
Morf4l2: percentage of expressing cells in OVA-treated group: 0.317
Neat1: percentage of expressing cells in OVA-treated group: 0.502
Nedd8: percentage of expressing cells in OVA-treated group: 0.781
Plekhg1: percentage of expressing cells in OVA-treated group: 0.231
Ppp1r16b: percentage of expressing cells in OVA-treated group: 0.302
Ppp2ca: percentage of expressing cells in OVA-treated group: 0.336
Ptger2: percentage of expressing cells in OVA-treated group: 0.299
Ptpn7: percentage of expressing cells in OVA-treated group: 0.337
Raf1: percentage of expressing cells in OVA-treated group: 0.232
Ramp3: percentage of expressing cells in OVA-treated group: 0.224
Rassf5: percentage of expressing cells in OVA-treated group: 0.31
Rcn2: percentage of expressing cells in OVA-treated group: 0.258
Rel: percentage of expressing cells in OVA-treated group: 0.19
Rgs1: percentage of expressing cells in OVA-treated group: 0.498
Rgs3: percentage of expressing cells in OVA-treated group: 0.282
Rnf19b: percentage of expressing cells in OVA-treated group: 0.427
Rpa3: percentage of expressing cells in OVA-treated group: 0.175
S100a6: percentage of expressing cells in OVA-treated group: 0.603
S100a10: percentage of expressing cells in OVA-treated group: 0.866
Saraf: percentage of expressing cells in OVA-treated group: 0.557
Sat1: percentage of expressing cells in OVA-treated group: 0.744
Scn1b: percentage of expressing cells in OVA-treated group: 0.314
Sec11a: percentage of expressing cells in OVA-treated group: 0.376
Serpina3g: percentage of expressing cells in OVA-treated group: 0.587
Serpinb6b: percentage of expressing cells in OVA-treated group: 0.2
Ssna1: percentage of expressing cells in OVA-treated group: 0.294
Taf7: percentage of expressing cells in OVA-treated group: 0.144
Taf10: percentage of expressing cells in OVA-treated group: 0.297
Tagap: percentage of expressing cells in OVA-treated group: 0.461
Tcrg-C1: percentage of expressing cells in OVA-treated group: 0.36
Tgoln1: percentage of expressing cells in OVA-treated group: 0.286
Timm13: percentage of expressing cells in OVA-treated group: 0.592
Tnf: percentage of expressing cells in OVA-treated group: 0.245
Trim8: percentage of expressing cells in OVA-treated group: 0.223
Trps1: percentage of expressing cells in OVA-treated group: 0.17
Tsc22d3: percentage of expressing cells in OVA-treated group: 0.489
Tspan32: percentage of expressing cells in OVA-treated group: 0.395
Ttc19: percentage of expressing cells in OVA-treated group: 0.152
Tuba4a: percentage of expressing cells in OVA-treated group: 0.156
Tubb4b: percentage of expressing cells in OVA-treated group: 0.347
Txk: percentage of expressing cells in OVA-treated group: 0.529
Vegfa: percentage of expressing cells in OVA-treated group: 0.131
VgIl4: percentage of expressing cells in OVA-treated group: 0.338
Zc3hav1: percentage of expressing cells in OVA-treated group: 0.145
Zfand5: percentage of expressing cells in OVA-treated group: 0.252
1600014C10Rik: LN (average fold change) (OVA vs PBS): 0.467
2010300C02Rik: LN (average fold change) (OVA vs PBS): 0.310
2310001H17Rik: LN (average fold change) (OVA vs PBS): 0.484
4921524J17Rik: LN (average fold change) (OVA vs PBS): 0.531
Alyref: LN (average fold change) (OVA vs PBS): −0.564
Amd1: LN (average fold change) (OVA vs PBS): −0.353
Asb2: LN (average fold change) (OVA vs PBS): 0.320
Azin1: LN (average fold change) (OVA vs PBS): −0.472
Bin3: LN (average fold change) (OVA vs PBS): 0.452
Bzw1: LN (average fold change) (OVA vs PBS): −0.190
Cacybp: LN (average fold change) (OVA vs PBS): 0.291
Cd69: LN (average fold change) (OVA vs PBS): −0.153
Cdkn1a: LN (average fold change) (OVA vs PBS): −0.202
Clec2d: LN (average fold change) (OVA vs PBS): 0.489
Cwc25: LN (average fold change) (OVA vs PBS): −0.463
